Test results reported in patent US20200407467.

Tests used:
[1] = biological target: T1, IL1B peptide 75-131 (mouse library)
T1 chain: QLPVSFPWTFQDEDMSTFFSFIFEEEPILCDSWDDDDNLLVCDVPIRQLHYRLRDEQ

[2] = biological target: T2, TNS3 peptide 451-540 (human library), Q68CZ2
T2 chain: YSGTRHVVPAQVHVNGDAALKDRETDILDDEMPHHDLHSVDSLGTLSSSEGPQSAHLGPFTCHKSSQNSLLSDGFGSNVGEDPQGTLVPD

[3] = biological target: T3, HUWE1 peptide 2291-2347 (mouse library), Q7TMY8
T3 chain: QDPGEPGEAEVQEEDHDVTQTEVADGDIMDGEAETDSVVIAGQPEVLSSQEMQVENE

[4] = biological target: Gasdermin-D (peptides of the human library)
[5] = biological target: T4, Efs peptide 181-270 (human library), O43281
T4 chain: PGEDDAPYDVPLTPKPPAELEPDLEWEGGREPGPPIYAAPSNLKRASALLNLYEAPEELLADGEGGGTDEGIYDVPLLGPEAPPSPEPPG

[6] = biological target: T5, GSDMD peptide 259-315 (mouse library)
T5 chain: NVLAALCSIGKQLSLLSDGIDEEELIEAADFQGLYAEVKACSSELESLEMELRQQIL

[7] = biological target: T6, IL1B peptide 74-130 (mouse library)
T6 chain: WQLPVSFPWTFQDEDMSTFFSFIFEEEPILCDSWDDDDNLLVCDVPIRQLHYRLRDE

[8] = biological target: T7, ERO1L peptide 91-180 (human library), Q96HE7
T7 chain: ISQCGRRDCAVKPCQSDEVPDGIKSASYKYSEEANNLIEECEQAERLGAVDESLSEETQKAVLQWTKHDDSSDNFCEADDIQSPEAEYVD

[9] = biological target: T7-SEPARATE PreScission-cleavable clone, monovalent display (T7Select1-2b)
[10] = biological target: T8, Hyls1 peptide 1-90 (human library), Q96M11
T8 chain: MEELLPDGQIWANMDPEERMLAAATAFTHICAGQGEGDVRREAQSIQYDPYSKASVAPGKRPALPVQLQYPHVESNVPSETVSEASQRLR

[11] = biological target: T9, HUWE1 peptide 2341-2430 (human library), Q7Z6Z7
T9 chain: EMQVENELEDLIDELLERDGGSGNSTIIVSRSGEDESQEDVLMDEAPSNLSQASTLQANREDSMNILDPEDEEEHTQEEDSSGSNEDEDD

[12] = biological target: unmapped_NM peptide 91-180 (human library)
[13] = biological target: T10, GSDMD peptide 222-278 (mouse library)
T10 chain: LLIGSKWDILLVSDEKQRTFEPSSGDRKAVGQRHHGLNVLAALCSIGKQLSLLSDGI

[14] = biological target: MAP3K14 peptide 496-585 (human library), Q99558
[15] = biological target: T11, hoxa2 peptide 271-360 (human library), O43364
T11 chain: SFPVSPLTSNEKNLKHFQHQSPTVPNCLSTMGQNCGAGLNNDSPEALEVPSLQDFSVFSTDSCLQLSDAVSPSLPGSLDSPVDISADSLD

[16] = biological target: T12, ZNF469 peptide 811-900 (human library), Q96JG9
T12 chain: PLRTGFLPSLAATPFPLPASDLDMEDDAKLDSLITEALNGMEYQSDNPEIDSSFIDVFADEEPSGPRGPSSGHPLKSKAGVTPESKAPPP

[17] = biological target: T13, HUWE1 peptide 2296-2485 (human library), Q7Z6Z7
T13 chain: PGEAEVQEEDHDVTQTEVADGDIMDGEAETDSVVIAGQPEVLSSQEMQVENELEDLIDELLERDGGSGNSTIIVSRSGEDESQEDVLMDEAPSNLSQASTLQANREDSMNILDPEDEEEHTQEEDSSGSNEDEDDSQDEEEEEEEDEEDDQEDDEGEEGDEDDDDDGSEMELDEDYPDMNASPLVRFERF

[18] = biological target: T14, C14orf93 peptide 91-180 (human library), Q9H972
T14 chain: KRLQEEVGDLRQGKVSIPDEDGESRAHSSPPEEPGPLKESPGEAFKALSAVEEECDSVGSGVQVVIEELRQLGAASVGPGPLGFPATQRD

[19] = biological target: T15, HUWE1 peptide 2251-2340 (human library), Q7Z6Z7
T15 chain: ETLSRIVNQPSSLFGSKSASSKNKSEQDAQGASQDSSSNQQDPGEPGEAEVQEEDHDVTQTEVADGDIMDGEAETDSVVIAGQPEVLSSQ

[20] = biological target: T16, IL1B peptide 0-56 (mouse library)
T16 chain: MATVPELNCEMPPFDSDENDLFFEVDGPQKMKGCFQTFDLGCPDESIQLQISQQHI

[21] = biological target: T17, UHRF1BP1L peptide 991-1080 (human library), A0JNW5
T17 chain: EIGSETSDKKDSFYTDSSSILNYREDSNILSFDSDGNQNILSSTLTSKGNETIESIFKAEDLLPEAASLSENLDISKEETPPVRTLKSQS

[22] = biological target: LOC100287737 peptide 496-585 (human library)
[23] = biological target: HECT, UBA and WWE Domain Containing E3 Ubiquitin Protein Ligase 1 (HUWE1), endogenous in THP-1 cells, Q7Z6Z7
[24] = biological target: T18, Znf462 peptide 1-90 (human library), Q96JM2
T18 chain: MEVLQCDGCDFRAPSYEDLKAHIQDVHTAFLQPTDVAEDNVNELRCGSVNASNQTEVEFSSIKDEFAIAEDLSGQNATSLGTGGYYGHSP

[25] = biological target: T19, HMGXB4 peptide 226-315 (human library), Q9UGU5
T19 chain: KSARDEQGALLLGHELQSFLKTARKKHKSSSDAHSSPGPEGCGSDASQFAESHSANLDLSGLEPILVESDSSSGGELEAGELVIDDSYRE

[26] = biological target: T20, Hmcn2 peptide 1576-1665 (human library), Q8NDA2
T20 chain: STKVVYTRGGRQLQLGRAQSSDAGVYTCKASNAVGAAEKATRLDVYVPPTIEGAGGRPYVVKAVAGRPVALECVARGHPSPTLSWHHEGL

[27] = biological target: T21, LYST peptide 1171-1260 (human library), Q99698
T21 chain: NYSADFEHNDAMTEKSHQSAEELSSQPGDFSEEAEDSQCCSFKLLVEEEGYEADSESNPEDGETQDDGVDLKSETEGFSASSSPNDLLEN

[28] = biological target: T22, ANAPC1 peptide 1-90 (human library), Q9H1A4
T22 chain: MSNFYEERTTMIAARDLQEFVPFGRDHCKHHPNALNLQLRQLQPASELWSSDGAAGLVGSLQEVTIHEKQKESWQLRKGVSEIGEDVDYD

[29] = biological target: T23, HUWE1 peptide 2328-2384 (mouse library), Q7TMY8
T23 chain: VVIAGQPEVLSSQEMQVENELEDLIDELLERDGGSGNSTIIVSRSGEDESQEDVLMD

[30] = biological target: T24, BSN peptide 631-720 (human library), Q9UPA5
T24 chain: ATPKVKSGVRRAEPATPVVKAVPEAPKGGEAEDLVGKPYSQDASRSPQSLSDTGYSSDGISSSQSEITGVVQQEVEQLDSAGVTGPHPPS

B1: Caspase-1 (recombinant) (protein)
chain: NPAMPTSSGSEGNVKLCSLEEAQRIWKQKSAEIYPIMDKSSRTRLALIICNEEFDSIPRRTGAEVDITGMTMLLQNLGYSVDVKKNLTASDMTTELEAFAHRPEHKTSDSTFLVFMSHGIREGICGKKHSEQVPDILQLNAIFNMLNTKNCPSLKDKPKVIIIQACRGDSPGVVWFKDSVGVSGNLSLPTTEEFEDDAIKKAHIEKDFIAFCSSTPDNVSWRHPTMGSVFIGRLIEHMQEYACSCDVEEIFRKVRFSFEQPDGRAQMPTTERVTLTRCFYLFPGH
With B1 as the protein, how does the Caspase1 fold change [1] read?
The Caspase1 fold change was 8.8 fold.

And the Caspase1 fold change [2]?
The Caspase1 fold change was 18.7 fold.

What about the Caspase1 fold change [3] of the same protein?
Its Caspase1 fold change is 6.13 fold.

What about the “enrichment in SEPARATE (human library digest)” value [4] of the same protein?
The value was “did not score in the assay”.

What about the Caspase1 fold change [5] of the same protein?
Its Caspase1 fold change is 21.1 fold.

What about the Caspase1 fold change [6] of the same protein?
Its Caspase1 fold change is 6.78 fold.

What about the Caspase1 fold change [7] of the same protein?
The Caspase1 fold change was 13.2 fold.

What about the Caspase1 fold change [8] of the same protein?
The Caspase1 fold change was 19.8 fold.

And the “enrichment of the PreScission digestible clone spiked into the human library” value [9]?
Its value is “no enrichment is observed when digested with Caspase-1”.

And the Caspase1 fold change [10]?
Its Caspase1 fold change is 19.7 fold.

What about the Caspase1 fold change [11] of the same protein?
Its Caspase1 fold change is 16.6 fold.

And the Caspase1 fold change [12]?
The Caspase1 fold change was 18.7 fold.

What about the Caspase1 fold change [13] of the same protein?
Its Caspase1 fold change is 4.23 fold.

What about the Caspase1 fold change [14] of the same protein?
Its Caspase1 fold change is 16.5 fold.

And the Caspase1 fold change [15]?
The Caspase1 fold change was 17.1 fold.

And the Caspase1 fold change [16]?
Its Caspase1 fold change is 16.8 fold.

And the Caspase1 fold change [17]?
The Caspase1 fold change was 22.7 fold.

And the Caspase1 fold change [18]?
Its Caspase1 fold change is 18.2 fold.

What about the Caspase1 fold change [19] of the same protein?
The Caspase1 fold change was 17.6 fold.

What about the Caspase1 fold change [20] of the same protein?
The Caspase1 fold change was 8.1 fold.

And the Caspase1 fold change [21]?
Its Caspase1 fold change is 16.4 fold.

What about the Caspase1 fold change [22] of the same protein?
Its Caspase1 fold change is 16.4 fold.

And the “Western blot, cleavage of endogenous HUWE1 in THP-1 lysate” value [23]?
The value was “robust cleavage of endogenous HUWE1”.

What about the Caspase1 fold change [24] of the same protein?
Its Caspase1 fold change is 19.1 fold.

And the Caspase1 fold change [25]?
Its Caspase1 fold change is 16.5 fold.

What about the Caspase1 fold change [26] of the same protein?
Its Caspase1 fold change is 16.3 fold.

And the Caspase1 fold change [27]?
The Caspase1 fold change was 21 fold.

What about the Caspase1 fold change [28] of the same protein?
Its Caspase1 fold change is 16.4 fold.

What about the Caspase1 fold change [29] of the same protein?
Its Caspase1 fold change is 23.1 fold.

And the Caspase1 fold change [30]?
The Caspase1 fold change was 18.8 fold.
